Each block holds one binder with its values, some of them ahead of it. Bridge positions count the residues as written; N and C are the ends.
Key:
Details in all cases: remark: other sources report otherwise
[1] = biological target: kappa (h) (KOP) (human), P41145; assay: radioligand displacement (agonist radioligand), 10 µM
[2] = substrate: N neuronal alpha 4beta 2 (h) (human), P43681; assay: as above
CB1 (h) (human), P21554 = biological target: T1, CB1 (h) (human), P21554; assay: as above
T1 chain: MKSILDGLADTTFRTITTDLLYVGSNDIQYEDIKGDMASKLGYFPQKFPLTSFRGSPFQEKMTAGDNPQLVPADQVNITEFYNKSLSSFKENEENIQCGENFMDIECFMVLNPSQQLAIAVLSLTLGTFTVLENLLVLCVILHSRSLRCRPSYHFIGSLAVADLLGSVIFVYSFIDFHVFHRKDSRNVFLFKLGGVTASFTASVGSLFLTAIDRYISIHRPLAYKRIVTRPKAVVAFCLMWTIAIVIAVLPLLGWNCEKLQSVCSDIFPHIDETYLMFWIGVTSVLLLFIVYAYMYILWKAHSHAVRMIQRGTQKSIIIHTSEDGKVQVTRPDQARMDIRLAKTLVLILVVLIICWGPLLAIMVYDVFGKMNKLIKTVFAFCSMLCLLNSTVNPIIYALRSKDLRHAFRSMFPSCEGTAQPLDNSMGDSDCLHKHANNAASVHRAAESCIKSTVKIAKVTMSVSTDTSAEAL

V1a (h) (human), P37288 = assay: as above
[3] = biological target: T2, delta (DOP) (h) (human), P41143; assay: as above
T2 chain: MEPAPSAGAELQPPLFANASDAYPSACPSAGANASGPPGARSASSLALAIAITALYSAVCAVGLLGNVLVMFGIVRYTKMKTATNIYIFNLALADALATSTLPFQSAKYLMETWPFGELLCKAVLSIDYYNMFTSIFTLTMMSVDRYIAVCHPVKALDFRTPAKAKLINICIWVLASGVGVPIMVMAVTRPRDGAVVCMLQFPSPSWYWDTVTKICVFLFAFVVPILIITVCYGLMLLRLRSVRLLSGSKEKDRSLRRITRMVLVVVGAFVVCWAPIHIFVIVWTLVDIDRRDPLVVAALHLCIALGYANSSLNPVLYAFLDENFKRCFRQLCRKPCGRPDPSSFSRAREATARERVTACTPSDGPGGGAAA

CB2 (h) (human), P34972 = assay: as above
GR (h) (human), P04150 = biological target: T3, GR (h) (human), P04150; assay: as above
T3 chain: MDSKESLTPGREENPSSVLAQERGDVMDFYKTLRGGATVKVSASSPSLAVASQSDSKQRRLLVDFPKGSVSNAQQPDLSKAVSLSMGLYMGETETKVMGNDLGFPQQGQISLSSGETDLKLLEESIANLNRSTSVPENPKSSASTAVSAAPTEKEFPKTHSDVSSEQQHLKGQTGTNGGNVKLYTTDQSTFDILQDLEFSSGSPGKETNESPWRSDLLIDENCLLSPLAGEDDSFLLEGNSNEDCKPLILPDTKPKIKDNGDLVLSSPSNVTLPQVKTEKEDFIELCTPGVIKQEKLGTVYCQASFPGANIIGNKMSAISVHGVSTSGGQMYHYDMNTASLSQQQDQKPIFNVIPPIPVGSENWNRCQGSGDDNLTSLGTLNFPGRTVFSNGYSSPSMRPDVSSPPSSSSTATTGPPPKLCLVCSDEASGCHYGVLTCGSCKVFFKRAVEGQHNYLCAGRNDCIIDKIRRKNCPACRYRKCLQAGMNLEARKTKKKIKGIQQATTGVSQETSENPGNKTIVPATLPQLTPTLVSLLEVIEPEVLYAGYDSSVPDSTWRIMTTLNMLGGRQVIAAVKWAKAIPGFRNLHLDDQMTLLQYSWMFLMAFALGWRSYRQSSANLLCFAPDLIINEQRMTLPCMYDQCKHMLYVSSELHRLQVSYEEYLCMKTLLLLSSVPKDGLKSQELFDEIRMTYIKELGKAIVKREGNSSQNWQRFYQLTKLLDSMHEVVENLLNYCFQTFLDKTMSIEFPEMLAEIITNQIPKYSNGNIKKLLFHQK

[4] = biological target: T4, CCK1 (CCKA) (h) (human), P32238; assay: as above
T4 chain: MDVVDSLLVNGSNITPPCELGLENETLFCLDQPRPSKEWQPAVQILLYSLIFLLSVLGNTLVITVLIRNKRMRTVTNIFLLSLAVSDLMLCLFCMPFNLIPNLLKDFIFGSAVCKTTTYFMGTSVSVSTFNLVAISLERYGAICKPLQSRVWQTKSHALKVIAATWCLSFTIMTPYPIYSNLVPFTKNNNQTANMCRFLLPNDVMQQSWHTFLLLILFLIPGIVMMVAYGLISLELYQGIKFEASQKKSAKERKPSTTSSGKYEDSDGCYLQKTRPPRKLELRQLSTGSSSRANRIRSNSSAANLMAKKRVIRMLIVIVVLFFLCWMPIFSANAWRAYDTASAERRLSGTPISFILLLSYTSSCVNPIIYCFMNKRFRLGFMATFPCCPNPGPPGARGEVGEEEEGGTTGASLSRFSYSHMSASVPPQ

[5] = biological target: mu (MOP) (h) (human), P35372; assay: as above
[6] = biological target: T5, 5-HT3 (h) (human), P46098; assay: radioligand displacement (antagonist radioligand), 10 µM
T5 chain: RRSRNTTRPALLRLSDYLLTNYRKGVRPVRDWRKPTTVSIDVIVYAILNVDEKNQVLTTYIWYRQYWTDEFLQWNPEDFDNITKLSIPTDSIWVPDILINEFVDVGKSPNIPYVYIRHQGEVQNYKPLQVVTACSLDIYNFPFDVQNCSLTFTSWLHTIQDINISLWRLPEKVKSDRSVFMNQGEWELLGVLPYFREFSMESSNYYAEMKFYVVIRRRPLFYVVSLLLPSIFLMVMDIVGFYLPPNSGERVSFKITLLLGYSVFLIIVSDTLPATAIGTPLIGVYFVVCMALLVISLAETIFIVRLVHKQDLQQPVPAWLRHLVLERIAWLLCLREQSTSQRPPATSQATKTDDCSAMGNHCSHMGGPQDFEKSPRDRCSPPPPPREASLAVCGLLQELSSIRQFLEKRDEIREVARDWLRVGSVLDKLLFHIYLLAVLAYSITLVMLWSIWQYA

Chain of CB2 (h) (human), P34972 (P34972 whole entry): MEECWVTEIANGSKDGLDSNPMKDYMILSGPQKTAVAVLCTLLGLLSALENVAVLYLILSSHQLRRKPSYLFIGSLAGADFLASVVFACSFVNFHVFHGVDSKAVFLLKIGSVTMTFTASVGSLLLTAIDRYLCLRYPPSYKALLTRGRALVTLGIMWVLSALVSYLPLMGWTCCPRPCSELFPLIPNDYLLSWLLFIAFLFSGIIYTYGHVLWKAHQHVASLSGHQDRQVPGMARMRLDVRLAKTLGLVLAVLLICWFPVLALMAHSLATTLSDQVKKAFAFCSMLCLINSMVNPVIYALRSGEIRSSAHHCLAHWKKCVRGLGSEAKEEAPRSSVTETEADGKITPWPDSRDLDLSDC
Chain of mu (MOP) (h) (human), P35372 (P35372 whole entry): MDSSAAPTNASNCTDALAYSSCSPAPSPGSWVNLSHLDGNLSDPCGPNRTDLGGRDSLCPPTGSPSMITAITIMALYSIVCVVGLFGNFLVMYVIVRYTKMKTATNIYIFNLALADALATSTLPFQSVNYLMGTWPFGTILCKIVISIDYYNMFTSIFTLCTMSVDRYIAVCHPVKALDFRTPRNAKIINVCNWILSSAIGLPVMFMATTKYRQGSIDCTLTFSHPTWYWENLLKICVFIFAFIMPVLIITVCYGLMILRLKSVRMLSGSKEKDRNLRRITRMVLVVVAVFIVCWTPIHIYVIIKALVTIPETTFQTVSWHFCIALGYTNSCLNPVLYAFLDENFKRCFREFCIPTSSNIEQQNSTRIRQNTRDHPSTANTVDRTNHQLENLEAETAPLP
Chain of kappa (h) (KOP) (human), P41145 (P41145 whole entry): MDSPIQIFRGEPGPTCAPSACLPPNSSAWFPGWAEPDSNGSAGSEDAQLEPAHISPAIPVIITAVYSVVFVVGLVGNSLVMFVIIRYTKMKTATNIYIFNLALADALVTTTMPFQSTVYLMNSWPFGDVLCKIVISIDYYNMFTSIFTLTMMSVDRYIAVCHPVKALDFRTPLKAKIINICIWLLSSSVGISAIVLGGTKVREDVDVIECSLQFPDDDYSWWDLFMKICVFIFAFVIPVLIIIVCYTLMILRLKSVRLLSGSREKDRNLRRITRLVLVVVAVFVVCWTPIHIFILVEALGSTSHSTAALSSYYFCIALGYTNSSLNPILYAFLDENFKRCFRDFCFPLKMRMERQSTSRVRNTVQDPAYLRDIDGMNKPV
Chain of N neuronal alpha 4beta 2 (h) (human), P43681 (P43681 27-627, chain 1 of 2): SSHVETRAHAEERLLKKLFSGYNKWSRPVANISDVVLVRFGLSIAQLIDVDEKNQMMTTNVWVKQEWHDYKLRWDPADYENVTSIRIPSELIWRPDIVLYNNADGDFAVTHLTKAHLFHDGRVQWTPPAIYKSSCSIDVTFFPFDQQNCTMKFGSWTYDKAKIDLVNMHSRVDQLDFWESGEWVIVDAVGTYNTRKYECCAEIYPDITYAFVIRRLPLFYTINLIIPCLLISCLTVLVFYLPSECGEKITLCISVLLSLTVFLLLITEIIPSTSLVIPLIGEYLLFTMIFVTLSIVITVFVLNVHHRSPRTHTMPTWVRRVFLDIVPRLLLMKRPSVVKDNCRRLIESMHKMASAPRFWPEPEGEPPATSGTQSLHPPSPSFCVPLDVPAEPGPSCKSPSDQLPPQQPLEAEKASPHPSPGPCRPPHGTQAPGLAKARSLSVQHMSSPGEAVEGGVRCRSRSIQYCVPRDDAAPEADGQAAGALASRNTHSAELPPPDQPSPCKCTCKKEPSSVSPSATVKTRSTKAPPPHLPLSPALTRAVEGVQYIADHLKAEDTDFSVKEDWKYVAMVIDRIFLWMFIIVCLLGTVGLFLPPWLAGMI
Chain of N neuronal alpha 4beta 2 (h) (human), P43681 (P17787 26-502, chain 2 of 2, further chain): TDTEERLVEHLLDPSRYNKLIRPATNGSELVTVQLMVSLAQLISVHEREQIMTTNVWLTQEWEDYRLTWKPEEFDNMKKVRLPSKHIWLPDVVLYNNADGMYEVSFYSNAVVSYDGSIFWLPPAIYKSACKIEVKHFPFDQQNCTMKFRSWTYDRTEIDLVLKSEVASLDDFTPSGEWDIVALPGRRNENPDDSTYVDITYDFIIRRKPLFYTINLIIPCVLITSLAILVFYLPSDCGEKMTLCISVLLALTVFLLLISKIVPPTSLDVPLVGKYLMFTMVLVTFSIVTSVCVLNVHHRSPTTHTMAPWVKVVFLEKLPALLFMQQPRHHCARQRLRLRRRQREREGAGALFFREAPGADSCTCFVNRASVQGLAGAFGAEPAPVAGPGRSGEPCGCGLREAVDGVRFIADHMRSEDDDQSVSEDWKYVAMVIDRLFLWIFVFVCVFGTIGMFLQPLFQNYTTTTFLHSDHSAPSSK
Chain of V1a (h) (human), P37288 (P37288 whole entry): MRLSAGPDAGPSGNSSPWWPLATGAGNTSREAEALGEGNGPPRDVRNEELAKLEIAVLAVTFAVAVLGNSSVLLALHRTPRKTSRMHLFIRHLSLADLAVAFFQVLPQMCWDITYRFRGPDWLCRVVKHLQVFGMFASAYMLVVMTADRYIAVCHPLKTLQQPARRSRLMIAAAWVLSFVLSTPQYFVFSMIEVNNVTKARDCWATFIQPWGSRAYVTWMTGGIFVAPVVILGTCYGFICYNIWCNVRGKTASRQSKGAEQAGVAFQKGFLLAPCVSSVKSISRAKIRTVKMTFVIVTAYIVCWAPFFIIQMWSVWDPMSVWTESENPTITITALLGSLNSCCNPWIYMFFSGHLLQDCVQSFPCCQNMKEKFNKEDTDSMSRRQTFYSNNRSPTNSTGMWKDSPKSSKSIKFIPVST

% Inhibition of Specific Binding [1]: 10%
% Inhibition of Specific Binding [2]: -2%
% Inhibition of Specific Binding (CB1 (h) (human), P21554): -7%
% Inhibition of Specific Binding (V1a (h) (human), P37288): 1%
% Inhibition of Specific Binding [3]: 1%
% Inhibition of Specific Binding (CB2 (h) (human), P34972): -5%
% Inhibition of Specific Binding (GR (h) (human), P04150): 0%
% Inhibition of Specific Binding [4]: 16%
% Inhibition of Specific Binding [5]: -10%
% Inhibition of Specific Binding [6]: 4%
B1: Hex-[Cys(tMeBn(DOTA-AET))-Pro-Pro-Thr-Gln-Phe-Cys]-OH (peptide)
peptide: Hex-CPPTQFC-OH
modifications: bridge 1-7; not fully specified (bridges); printed as Hex-[Cys(tMeBn(DOTA-AET))-Pro-Pro-Thr-Gln-Phe-Cys]-OH

B2: Hex-[Cys(tMeBn(DOTA-PP))-Pro-Pro-Thr-Gln-Phe-Cys]-Asp-NH2 (peptide)
peptide: Hex-CPPTQFCD-NH2
modifications: bridge 1-7; not fully specified (bridges); printed as Hex-[Cys(tMeBn(DOTA-PP))-Pro-Pro-Thr-Gln-Phe-Cys]-Asp-NH2
% Inhibition of Specific Binding [1]: 7%
% Inhibition of Specific Binding [2]: -8%
% Inhibition of Specific Binding (CB1 (h) (human), P21554): 5%
% Inhibition of Specific Binding (V1a (h) (human), P37288): 16%
% Inhibition of Specific Binding [3]: 0%
% Inhibition of Specific Binding (CB2 (h) (human), P34972): 2%
% Inhibition of Specific Binding (GR (h) (human), P04150): -2%
% Inhibition of Specific Binding [4]: 24%
% Inhibition of Specific Binding [5]: 2%
% Inhibition of Specific Binding [6]: 2%
